Consider one variant from publication PMC8844116.

The labels stand for the following.
B1: Flag-RAGE wild type (LV-Flag-RAGE-wt, wild-type ctRAGE) [mouse] / mitogen-activated protein kinase kinase 3 (MKK3), endogenous in mouse hippocampus and HT22 cells [mouse (endogenous in hippocampus and in HT22)] (parent)
chain 1: GQNITARIGEPLVLSCKGAPKKPPQQLEWKLNTGRTEAWKVLSPQGGPWDSVARILPNGSLLLPATGIVDEGTFRCRATNRRGKEVKSNYRVRVYQIPGKPEIVDPASELTASVPNKVGTCVSEGSYPAGTLSWHLDGKLLIPDGKETLVKEETRRHPETGLFTLRSELTVIPTQGGTHPTFSCSFSLGLPRRRPLNTAPIQLRVREPGPPEGIQLLVEPEGGIVAPGGTVTLTCAISAQPPPQVHWIKDGAPLPLAPSPVLLLPEVGHEDEGTYSCVATHPSHGPQESPPVSIRVTETGDEGPAEGSVGESGLGTLALALGILGGLGVVALLVGAILWRKRQPRREERKAPESQEDEEERAELNQSEEAEMPENGAGGP
chain 2: MESPAASPPASLPQTKGKSKRKKDLRISCVSKPPVSNPTPPRNLDSRTFITIGDRNFEVEADDLVTISELGRGAYGVVEKVRHAQSGTIMAVKRIRATVNTQEQKRLLMDLDINMRTVDCFYTVTFYGALFREGDVWICMELMDTSLDKFYRKVLEKNMKIPEDILGEIAVSIVRALEHLHSKLSVIHRDVKPSNVLINKEGHVKMCDFGISGYLVDSVAKTMDAGCKPYMAPERINPELNQKGYNVKSDVWSLGITMIEMAILRFPYESWGTPFQQLKQVVEEPSPQLPADQFSPEFVDFTSQCLRKNPAERMSYLELMEHPFFTLHKTKKTDIAAFVKEILGEDS

In the first experiment the parent is B1. Nature of the experiment: co-immunoprecipitation (IP: Flag-RAGE, IB: MKK3), optical density of blot. The note with it: with mitogen-activated protein kinase kinase 3 (MKK3), HT22 cells with RAGE-shRNA knockdown, high glucose, n = 3, parent: 6, read off a plot.
chain 1 GQNITARIGEPLVLSCKGAPKKPPQQLEWKLNTGRTEAWKVLSPQGGPWDSVARILPNGSLLLPATGIVDEGTFRCRATNRRGKEVKSNYRVRVYQIPGKPEIVDPASELTASVPNKVGTCVSEGSYPAGTLSWHLDGKLLIPDGKETLVKEETRRHPETGLFTLRSELTVIPTQGGTHPTFSCSFSLGLPRRRPLNTAPIQLRVREPGPPEGIQLLVEPEGGIVAPGGTVTLTCAISAQPPPQVHWIKDGAPLPLAPSPVLLLPEVGHEDEGTYSCVATHPSHGPQESPPVSIRVTETGDEGPAEGSVGESGLGTLALALGILGGLGVVALLVGAILWAAAAPRREERKAPESQEDEEERAELNQSEEAEMPENGAGGP [chain 1 R340A K341A R342A Q343A]: the response (fold change to HG + RAGE-shRNA group) came out at 1.6.

Still in this experiment, the particulars now being: with mitogen-activated protein kinase kinase 3 (MKK3), hippocampus of db/db mice with LV-RAGE-shRNA, n = 3, parent: 3, read off a plot.
Take chain 1 GQNITARIGEPLVLSCKGAPKKPPQQLEWKLNTGRTEAWKVLSPQGGPWDSVARILPNGSLLLPATGIVDEGTFRCRATNRRGKEVKSNYRVRVYQIPGKPEIVDPASELTASVPNKVGTCVSEGSYPAGTLSWHLDGKLLIPDGKETLVKEETRRHPETGLFTLRSELTVIPTQGGTHPTFSCSFSLGLPRRRPLNTAPIQLRVREPGPPEGIQLLVEPEGGIVAPGGTVTLTCAISAQPPPQVHWIKDGAPLPLAPSPVLLLPEVGHEDEGTYSCVATHPSHGPQESPPVSIRVTETGDEGPAEGSVGESGLGTLALALGILGGLGVVALLVGAILWAAAAPRREERKAPESQEDEEERAELNQSEEAEMPENGAGGP [chain 1 R340A K341A R342A Q343A]: the response (fold change to db/db + RAGE-shRNA group) was found to be 1.4.

The next experiment covers variants of B1. Nature of the experiment: co-immunoprecipitation (IP: MKK3, IB: Flag-RAGE), optical density of blot. The note with it: with mitogen-activated protein kinase kinase 3 (MKK3), HT22 cells with RAGE-shRNA knockdown, high glucose, n = 3, parent: 6.8, read off a plot.
On to chain 1 GQNITARIGEPLVLSCKGAPKKPPQQLEWKLNTGRTEAWKVLSPQGGPWDSVARILPNGSLLLPATGIVDEGTFRCRATNRRGKEVKSNYRVRVYQIPGKPEIVDPASELTASVPNKVGTCVSEGSYPAGTLSWHLDGKLLIPDGKETLVKEETRRHPETGLFTLRSELTVIPTQGGTHPTFSCSFSLGLPRRRPLNTAPIQLRVREPGPPEGIQLLVEPEGGIVAPGGTVTLTCAISAQPPPQVHWIKDGAPLPLAPSPVLLLPEVGHEDEGTYSCVATHPSHGPQESPPVSIRVTETGDEGPAEGSVGESGLGTLALALGILGGLGVVALLVGAILWAAAAPRREERKAPESQEDEEERAELNQSEEAEMPENGAGGP [chain 1 R340A K341A R342A Q343A], for which the response (fold change to HG + RAGE-shRNA group) is 1.8.

The same experiment, now with this note: with mitogen-activated protein kinase kinase 3 (MKK3), hippocampus of db/db mice with LV-RAGE-shRNA, n = 3, parent: 3.4, read off a plot.
Turning to chain 1 GQNITARIGEPLVLSCKGAPKKPPQQLEWKLNTGRTEAWKVLSPQGGPWDSVARILPNGSLLLPATGIVDEGTFRCRATNRRGKEVKSNYRVRVYQIPGKPEIVDPASELTASVPNKVGTCVSEGSYPAGTLSWHLDGKLLIPDGKETLVKEETRRHPETGLFTLRSELTVIPTQGGTHPTFSCSFSLGLPRRRPLNTAPIQLRVREPGPPEGIQLLVEPEGGIVAPGGTVTLTCAISAQPPPQVHWIKDGAPLPLAPSPVLLLPEVGHEDEGTYSCVATHPSHGPQESPPVSIRVTETGDEGPAEGSVGESGLGTLALALGILGGLGVVALLVGAILWAAAAPRREERKAPESQEDEEERAELNQSEEAEMPENGAGGP [chain 1 R340A K341A R342A Q343A], the response (fold change to db/db + RAGE-shRNA group) came to 1.9.
